Results reported in the supplement of paper PMC10567573.

B1: P2RY14 (parent)
chain: KKIFKSHLKSSRNSTSVKKKSSRN
B2: SMTNL2 (parent)
chain: ETAAGKGKGEARARLKRSQSFGVA

Variants of: B1
Assay: protein stability index of a GFP-peptide fusion (GPS, HEK-293T) (PSI 1-6); higher = more stable
Details: c terminus: a fixed tail appended
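Note: lentivirally expressed fusions sorted by FACS into six bins by GFP to DsRed ratio, PSI derived from sequencing read proportions per bin multiplied by bin number.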

Protein stability index: each site, then its substitutions
R23: T 3.88 | Q 4.38 | S 4.28 | Y 4.07 | W 3.51 | V 4.1
N24: S 4.07 | Q 4.23 | K 3.81 | D 4.29 | H 4.38 | W 3.6 | F 3.61 | C 3.55 | V 4.11 | I 3.61 | G 4.57 | P 3.91 | E 3.91 | M 3.3 | Y 3.46 | A 4.14 | T 4.28 | R 4.16 | L 4.12

Variants of: B2
Assay: as above
Details: c terminus: a fixed tail appended

Protein stability index: each site, then its substitutions
R17: D 4.31 | I 3.82 | H 4.54 | A 4.14 | E 4.65 | G 4.24 | F 3.19 | C 3.62
G9: L 3.6 | E 4.96 | N 4.56 | M 3.95 | V 4.26 | I 4.37 | F 4.12 | R 4.27 | Q 4.51 | W 3.27 | H 4.58 | P 4.43 | Y 4.42 | T 3.6 | C 4.21 | S 5.08 | K 4.21 | A 4.12 | D 4.53
K16: H 4 | R 4.4 | P 4.03 | I 3.35 | L 3.62 | Q 4.21 | D 4.62 | T 4.39 | M 3.83 | A 4 | Y 3.74 | E 4.57 | G 4.67 | C 3.77 | F 3.89 | S 4.35 | V 3.9 | N 4.46 | W 2.59
A3: S 4.28 | G 4.54 | T 4.65 | H 4.31 | P 4.88 | K 4.38 | Y 3.74 | W 4.27 | V 4.33 | M 4.5 | I 4.13 | L 4.8 | Q 4.56 | C 3.86 | D 4.72 | F 4.28 | R 4.1 | E 4.94 | N 4.74
G5: H 4.77 | I 3.91 | P 4.52 | E 4.79 | F 4.04 | V 4.34 | S 4.24 | D 3.84 | W 4.06 | Q 4.39 | Y 4.07 | L 4.56 | C 4.41 | N 4.58 | A 4.94 | R 4.42 | K 4.8 | M 3.93 | T 4.38
A4: G 4.29 | V 3.99 | Y 4.77 | H 4.3 | K 4.81 | S 4.02 | I 4.24 | Q 4.78 | M 4.71 | P 4.54 | L 3.81 | E 5.09 | T 4.67 | W 3.98 | C 4.46 | R 4.46 | N 4.13
R14: P 5.19 | L 4.29 | N 4.68 | C 4.53 | T 4.4 | Y 4.09 | G 4.9 | A 3.79 | M 4.27 | F 4.18 | E 4.88 | Q 4.66 | V 4.25 | D 4.82 | K 4.85 | I 4.27 | W 4.03 | S 4.41 | H 4.69
A13: F 3.9 | G 4.78 | V 3.82 | E 4.95 | Y 4.3 | T 4.61 | S 4.67 | L 4.11 | I 4.54 | C 4.38 | R 4.05 | N 4.55 | D 4.4 | K 4.86 | Q 4.38 | P 4.7 | W 3.67 | H 4.83 | M 4.05
L15: C 4.24 | P 5.01 | N 4.89 | E 4.7 | Q 4.91 | R 4.49 | T 3.83 | W 4.29 | S 4.76 | D 4.03 | I 4.51 | F 3.69 | K 4.77 | A 4.46 | M 3.95 | H 4.44 | G 4.49 | Y 4.09 | V 4.76
K8: F 4.29 | Q 5.13 | E 4.89 | G 3.96 | S 4.43 | T 4.08 | P 4.54 | L 4 | A 5.13 | C 4.17 | H 4.44 | R 4.38 | Y 4.2 | W 3.87 | M 4.66 | V 4.62 | D 5.01 | N 4.8 | I 4.12
A11: F 3.71 | Q 4.19 | M 4.19 | H 4.49 | I 3.69 | L 4.5 | T 4.62 | W 3.65 | C 3.96 | R 4.73 | E 4.69 | N 4.56 | D 4.8 | G 4.61 | K 4.74 | S 4.58 | V 4.02 | P 4.46 | Y 4.06
T2: E 4.83 | G 4.71 | L 4.36 | Y 3.83 | S 4.66 | H 4.46 | N 4.86 | C 4.53 | W 3.07 | M 4.65 | P 4.92 | V 4.79 | I 4.11 | D 5.39 | A 4.74 | Q 4.55 | F 4.46 | K 4.58
R12: D 4.79 | E 5.03 | M 3.94 | Q 4.61 | C 4.38 | N 3.82 | S 4.92 | Y 4.28 | V 4.83 | P 4.67 | I 3.95 | K 4.88 | F 3.9 | T 3.76 | L 4.24 | A 4.76 | H 4.45 | G 5.1 | W 3.14
K6: V 4.23 | M 3.87 | R 4.39 | T 4.78 | G 3.58 | H 4.53 | N 4.32 | L 4.04 | F 4.56 | P 4.59 | Y 3.9 | Q 3.41 | E 5.05 | S 4.62 | A 4.62 | I 4.54 | C 2.43 | D 4.85 | W 3.79
G7: T 4.48 | K 4.62 | F 3.87 | E 4.71 | A 4.28 | Y 4.2 | W 3.03 | N 4.02 | R 4.11 | P 4.08 | D 4.75 | H 4.18 | C 3.48 | M 3.73 | L 4.26 | V 4.01 | I 4.17 | Q 4.46 | S 4.22
E10: Y 3.35 | S 4.46 | C 3.51 | K 4.29 | V 4.27 | G 4.49 | N 4.21 | P 4.27 | L 3.79 | A 4.33 | I 3.96 | M 4.44 | R 4.53 | D 4.38 | Q 3.9 | T 4.38 | W 3.4 | H 4.44 | F 3.7
E1: I 3.58 | Q 4.03 | A 3.91 | N 4.35 | K 3.82 | T 3.72 | W 3.63 | H 3.94 | S 4.48 | L 4.18 | D 4.49 | G 4.54 | R 3.82 | Y 3 | P 4.09 | C 4.05 | M 3.88 | V 3.33 | F 3.21
